# In patent publication CN108178799A (SHENZHEN INNOVA NANOBODI CO LTD, dated 2018):
# Target: T1, CA125抗原 (purified from ascites of ovarian cancer patients) (human (ascites of ovarian cancer …, UniProt Q8WXI7 1-14451))
# T1 construct: Natural shed antigen, heterogeneous fragments; also called CA125糖类抗原
# Assay: SPR, Biacore T100, 1:1 binding fit
row,Kd,Binder
1,0.285 nM,"纳米抗体VHH-CA125-4H10 (VHH, Alpaca VHH expressed from pMES4 in E. coli BL21(DE3) periplasm; not shown: residues and tag from the pMES4 vector (protein purified on Ni-NTA / IMAC)) VHH: ESGGGLVQPGGSLRLSCAASEFTLEHYAIGWFRQAPGKEREGVGCISSSQENTYVEDSAKGRFTISRDNVKNTVYLQMNSLKPEDTAVYYCAARRFGLCVISPGYFEVWGQGT"
2,0.718 nM,"纳米抗体VHH-CA125-2H7 (VHH, Alpaca VHH expressed from pMES4 in E. coli BL21(DE3) periplasm; not shown: residues and tag from the pMES4 vector (protein purified on Ni-NTA / IMAC)) VHH: ESGGGLVQAGGSLRLSCERSDAPHSPYTMGWFRQAPGKDREFVATITWSGGTTLYADSVKGRFTISRGIAKNTAYLQMNTLKPEDTAVYYCAVGLGGGAYREDHQYDYWGQGT"
3,0.635 nM,"纳米抗体VHH-CA125-4C1 (VHH, Alpaca VHH expressed from pMES4 in E. coli BL21(DE3) periplasm; not shown: residues and tag from the pMES4 vector (protein purified on Ni-NTA / IMAC)) VHH: ESGGGLVQAGGSLRLSCAASGNTFNINAMGWYRQAPGKQRELVATITSGGSTNYADSVKGRFTISRDNAKNTVFLQMNSLKPEDTAVYYCNAVQTRLPNSPDRYEYDYWGQGT"
